Our source for the stoichiometry N (cTnT:cTnI:TnC) values is paper PMC10350235.

In the test the target is endogenous cTn(I-C) dimer (cTnI with TnC) (human (endogenous in heart tissue)) (UniProt P19429). As to the kind of experiment: native MS; native top-down MS on a 12-T FTICR, nanoelectrospray by direct infusion, 200 mM ammonium acetate; the heterotrimer was enriched as a whole from heart tissue on NP-Pep, isolated and its subunits ejected by CAD (complex-up, complex-down).
Chain of endogenous cTn(I-C) dimer (cTnI with TnC) (human (endogenous in heart tissue)) (P19429 whole entry, the tested form may be a part): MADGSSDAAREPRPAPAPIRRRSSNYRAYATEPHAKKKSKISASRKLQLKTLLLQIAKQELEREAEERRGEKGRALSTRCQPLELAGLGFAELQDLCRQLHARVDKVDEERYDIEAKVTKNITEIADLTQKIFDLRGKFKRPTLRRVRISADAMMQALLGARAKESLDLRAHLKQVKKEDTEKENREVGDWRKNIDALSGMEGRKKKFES

The substance “endogenous cardiac troponin T (cTnT) (natural protein)” showed a stoichiometry N (cTnT:cTnI:TnC) of 1.
